Like-named read-outs stand apart in the source and are kept apart here.
Key:
[1] = biological target: Cy5-IL-13Rα1 plus IL-4R (500 nM) in solution (human) (UniProt P78552); test: TR-FRET assay 1, competition with Eu-IL-13, with 500 nM IL-4R, Kd calculated from IC50
[2] = biological target: IL-13Rα1 + IL-4R co-immobilised on one sensor chip surface (high affinity receptor) (human) (UniProt P78552); test: SPR, IL-13Rα1 and IL-4R co-immobilised, heterogeneous ligand model, component 2 (high affinity)
[3] = biological target: IL-13Rα1 + IL-4R co-immobilised on one sensor chip surface (high affinity receptor) (human) (UniProt P78552); test: SPR, IL-13Rα1 and IL-4R co-immobilised, heterogeneous ligand model, component 1 (lower affinity)
[4] = biological target: IL-13Rα1 monomer (IL-13Rα1 extracellular domain) (human) (UniProt P78552); test: SPR, IL-13Rα1 immobilised, 1:1 model
[5] = biological target: IL-13Rα1 + IL-4R co-immobilised on one sensor chip surface (high affinity receptor) (human) (UniProt P78552); test: SPR, IL-13Rα1 and IL-4R co-immobilised, heterogeneous ligand model, component 2 (high affinity); column head misprinted 'Kd 2 × 10^6'
[6] = biological target: Cy5-IL-13Rα1 (Cy5 labeled IL-13Rα1) (human) (UniProt P78552); test: TR-FRET assay 1, competition with Eu-IL-13 for Cy5-IL-13Rα1, Kd calculated from IC50
[7] = biological target: Cy5-IL-13Rα1 (Cy5 labeled IL-13Rα1) (human) (UniProt P78552); test: TR-FRET assay 1, competition with 10 nM Eu-IL-13 for 10 nM Cy5-IL-13Rα1
[8] = biological target: IL-13Rα1 + IL-4R co-immobilised on one sensor chip surface (high affinity receptor) (human) (UniProt P78552); test: SPR, IL-13Rα1 and IL-4R co-immobilised, against IL-13Rα1 alone
[9] = biological target: Cy5-IL-13Rα1 plus IL-4R (500 nM) in solution (human) (UniProt P78552); test: TR-FRET assay 1, competition with 10 nM Eu-IL-13, 10 nM Cy5-IL-13Rα1, 500 nM IL-4R
[10] = biological target: IL-13Rα1 monomer (IL-13Rα1 extracellular domain) (human) (UniProt P78552); test: SPR, IL-13Rα1 immobilised
[11] = biological target: IL-13R110Q/IL-13Rα1 binary complex (human) (UniProt P35225); test: SPR, IL-13Rα1 immobilised, 8 nM IL-13R110Q in buffer, IL-4R injected, 1:1 model
[12] = biological target: IL-13R110Q/IL-13Rα1 binary complex (human) (UniProt P35225); test: as above; remark: listed apart in the source
[13] = biological target: T1, Eu-IL-13 (europium chelate labeled IL-13) (human, UniProt P35225 35-146, limits assumed, europium chelate (Eu) label, directly labeled; site not stated); test: TR-FRET assay 1, direct: Cy5-IL-13Rα1 titrated into 10 nM Eu-IL-13, no IL-4R
T1 construct: also called Eu-labeled IL-13
Experimental: (§1) All TR-FRET experiments were performed on a 384-well black plate (Corning Costar, Acton, Mass.) in 20 μL final volume of PBS plus 0.1% BSA. For example, excitation and emission conditions for TR-FRET assay 1 and 2 were 345 nm and 665 nm, respectively. All TR-FRET measurements were taken using an Envision plate reader (Perkin Elmer) using the TR-FRET mode.
Binding between IL-13 and IL-13Rα¹ was analyzed using Eu-IL-13 (Eu=Europium chelate, FRET donor) and Cy5-IL-13Rα1 (Cy5=Cyanine dye, FRET acceptor) (schematic shown in FIG. 3) described in Example 5. Affinity measurements were performed by adding various concentrations of Cy5-IL-13Rα1 in the presence of 10 nM Eu-IL-13 with and without 500 nM IL-4R.

[14] = biological target: T2, Eu-IL-13 plus IL-4R (500 nM) in solution (human, UniProt P35225 35-146; P24394 26-232, limits assumed, europium chelate label; site not stated); test: TR-FRET assay 1, competition with 10 nM Cy5-IL-13Rα1 for 10 nM Eu-IL-13, with 500 nM IL-4R
T2 construct: The partners of IL-13Rα1 in the ternary format of TR-FRET assay 1
Experimental: as §1
(§2) Assays were performed as described in Example 5. Competition experiments were performed by adding various concentrations of unlabeled IL-13, IL-13R110Q, or IL-13Rα1 to the Eu-IL-13 (10 nM)/Cy5-IL-13Rα1 (10 nM) binary complex with or without IL-4R (500 nM).
(§3) To confirm the dissociation constant of Cy5-IL-13Rα1, a competition experiment was performed using unlabeled IL-13Rα1.

[15] = biological target: T1, Eu-IL-13 (europium chelate labeled …); test: TR-FRET assay 1, competition with 10 nM Cy5-IL-13Rα1 for 10 nM Eu-IL-13, no IL-4R
Experimental: as §1, §2, §3

Sequence of IL-13R110Q/IL-13Rα1 binary complex (human) (P35225 35-146, one chain of several): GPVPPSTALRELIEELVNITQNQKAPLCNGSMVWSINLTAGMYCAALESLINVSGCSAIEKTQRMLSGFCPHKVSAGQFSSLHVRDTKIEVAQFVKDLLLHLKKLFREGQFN
Sequence of IL-13Rα1 + IL-4R co-immobilised on one sensor chip surface (high affinity receptor) (human) (P24394 26-232): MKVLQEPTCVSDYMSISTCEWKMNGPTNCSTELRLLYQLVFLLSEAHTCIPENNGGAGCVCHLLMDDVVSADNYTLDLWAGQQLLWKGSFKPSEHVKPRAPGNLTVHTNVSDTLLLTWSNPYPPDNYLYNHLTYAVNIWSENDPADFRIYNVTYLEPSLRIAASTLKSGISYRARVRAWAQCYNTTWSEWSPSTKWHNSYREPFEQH
T1 sequence (P35225 other isoform, or with tags, fused parts or gaps limits assumed, form in doubt): as the sequence (P35225 35-146, one chain of several) above, with Q110R counted along it
Sequence of Cy5-IL-13Rα1 plus IL-4R (500 nM) in solution (human) (P24394 26-232): as the sequence (P24394 26-232) above
T2 sequence (P35225 other isoform, or with tags, fused parts or gaps limits assumed, form in doubt, chain 1 of 2): as the sequence (P35225 35-146, one chain of several) above, with Q110R counted along it
T2 sequence (P24394 26-232 limits assumed, form in doubt, chain 2 of 2): as the sequence (P24394 26-232) above

## IL-13R110Q (from UniProt P35225 35-146) (ligand)
[1]
  Kd: 0.3 nM
[2]
  Kd: 0.53 nM
  koff: 0.002 s⁻¹
[3]
  Kd: 14.5 nM
  koff: 0.018 s⁻¹
  kon: 1.24e+06 M⁻¹ s⁻¹
[4]
  Kd: 8.93 nM
  koff: 0.015 s⁻¹
  kon: 1.68e+06 M⁻¹ s⁻¹
[5]
  kon: 3.77e+06 M⁻¹ s⁻¹
[6]
  Kd: 6.7 nM
[7]
  IC50: 27 nM
[8]
  fold lower Kd than to IL-13Rα1 alone: 17 fold
[9]
  IC50: 12 nM
[10]
  t½ (decay of binding): 50 s

## soluble form of carrier-free human IL-4Rα monomer (R&D Systems) (from UniProt P24394 26-232) (receptor)
[11]
  Kd: 115 nM
  koff: 0.0051 s⁻¹
  kon: 44000 M⁻¹ s⁻¹
[12]
  koff: 0.005 s⁻¹

B1: Cy5-IL-13Rα1 (Cy5 labeled IL-13Rα1) (receptor, human, UniProt P78552 22-343, looked up)
chain: GGGGAAPTETQPPVTNLSVSVENLCTVIWTWNPPEGASSNCSLWYFSHFGDKQDKKIAPETRRSIEVPLNERICLQVGSQCSTNESEKPSILVEKCISPPEGDPESAVTELQCIWHNLSYMKCSWLPGRNTSPDTNYTLYYWHRSLEKIHQCENIFREGQYFGCSFDLTKVKDSSFEQHSVQIMVKDNAGKIKPSFNIVPLTSRVKPDPPHIKNLSFHNDDLYVQWENPQNFISRCLFYEVEVNNSQTETHNVFYVQEAKCENPEFERNVENTSCFMVPGVLPDTLNTVRIRVKTNKLCYEDDKLWSNWSQEMSIGKKRNST
modifications: Cy5 label, directly labeled; site not stated
notes: extracellular domain; also called IL-13R-Cys5; Cy5-IL-13RI1
[13]
  EC50: 10 nM

B2: IL-13Rα1 monomer (IL-13Rα1 extracellular domain) (receptor, human, UniProt P78552 22-343, looked up)
chain: B1 chain
notes: extracellular domain; Expressed and purified as in Yang et al. 2006; also called IL-13RI1; IL-13R1
[14]
  IC50: 11 nM
[15]
  IC50: 20 nM
